Measured values reported in patent US20100279930A1 (published 2010).
Where two headings read alike, the source gives them in different places. No end group written: not given here.

Columns and labels:
human Y4 receptor [1] = target: T1, human Y4 receptor (human, UniProt P50391 1-375); assay: 125I-PP displacement
human Y4 receptor [2] = target: T1, human Y4 receptor; assay: 125I-PP displacement; remark: listed apart in the source

T1 sequence (P50391 whole entry): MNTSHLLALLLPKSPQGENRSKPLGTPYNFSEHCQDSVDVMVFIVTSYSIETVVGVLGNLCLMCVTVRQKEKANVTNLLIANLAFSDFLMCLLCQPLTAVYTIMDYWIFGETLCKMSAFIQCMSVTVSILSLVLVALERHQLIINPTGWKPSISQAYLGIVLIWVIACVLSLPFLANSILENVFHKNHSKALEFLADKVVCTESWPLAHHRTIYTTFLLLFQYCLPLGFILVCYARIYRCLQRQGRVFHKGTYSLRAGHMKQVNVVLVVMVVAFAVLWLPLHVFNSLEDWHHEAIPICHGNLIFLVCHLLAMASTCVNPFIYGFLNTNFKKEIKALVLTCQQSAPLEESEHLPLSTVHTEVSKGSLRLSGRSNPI

Binder | IC50 (human Y4 receptor [1]) | IC50 (human Y4 receptor [2])
YAPLEPKYPGDNATPEELAKYAAELRRYINKLTRPRY [4058693] | 0.077 nM | 
HAPLEPEYPGDNATPEEMAKYAAELRRYINKLTRPRY [4058074] |  | 0.116 nM
HAPLEPHYPGDNATPEEMAKYAAELRRYINKLTRPRY [4058699] | 0.092 nM | 
PAPLEPHYPGDNATPEELAKYAAELRRYINKLTRPRY [4058678] | 0.09 nM | 
GAPLEPKYPGDNATPEQMAKYAAELRRYINKLTRPRY [4058160] |  | 0.052 nM
GAPLEPKYPGDNATPEELAKYAAELRRYINKLTRPRY [4058691] | 0.098 nM | 
PAPLEPKYPGDNATPEQLAKYAAELRRYINKLTRPRY [4058168] |  | 0.048 nM
AAPLEPVYPGDNATPEEMARYYSELRRYINKLTRPRY [4058295] |  | 0.059 nM
GAPLEPHYPGDNATPEEMAKYAAELRRYINKLTRPRY [4058698] | 0.072 nM | 
GAPLEPKYPGDNATPEQLAKYAAELRRYINKLTRPRY [4058167] |  | 0.06 nM
AAPLEPTYPGDNATPEQMARYAAALRRYINKLTRPRY [4058068] |  | 0.026 nM
PAPLEPKYPGDNASPEQMAKYAAELRRYINKLTRPRY [4058669] | 0.043 nM | 
HAPLEPKYPGDNATPEQMAKYAAELRRYINKLTRPRY [4058163] |  | 0.087 nM
YAPLEPKYPGDNATPEQMAKYAAELRRYINKLTRPRY [4058164] |  | 0.058 nM
HAPLEPKYPGDNATPEELAKYAAELRRYINKLTRPRY [4058692] | 0.131 nM | 
GAPLEPEYPGDNATPEEMAKYAAELRRYINKLTRPRY [4058073] |  | 0.131 nM
PLEPEYPGDDATPEEMAKYAAELRRYINKLTRPRY [4058673] | 0.091 nM | 
PLEPEYPGDNATPEEMARYAAELRRYINKLTRPRY [4058674] | 0.082 nM | 
PLEPEYPGDNATPEEMAKYAAALRRYINKLTRPRY [4058676] | 0.061 nM | 
PAPLEPKYPGDDATPQEMARYAAELRRYINKLTRPRY [4058686] | 0.076 nM | 
GAPLEPEYPGDDATPQEMARYAAELRRYINKLTRPRY [4058682] | 0.076 nM | 

Binder | IC50 (human Y4 receptor [1]) | IC50 (human Y4 receptor [2])
PAPLEPHYPGDDATPEEMAKYAAELRRYINKLTRPRY [4058701] | 0.099 nM | 
PAPLEPHYPGDDATPEELAKYAAELRRYINKLTRPRY [4058705] | 0.097 nM | 
PAPLEPKYPGDDATPQQMAKYAAELRRYINKLTRPRY [4058670] | 0.08 nM | 
AAPLEPEYPGDDATPQEMARYAAELRRYINKLTRPRY [4058683] | 0.081 nM | 
PAPLEPEYPGDDATPQEMARYAAELRRYINKLTRPRY [4058681] | 0.087 nM | 
PAPLEPEYPGDNATPEEMAKYAAELRRYINKLTRPRY [4058077] |  | 0.059 nM
PAPLEPTYPGDNATPEELARYAAALRRYINKLTRPRY [4058738] | 0.055 nM | 
PAPLEPTYPGDNATPEQMARYAAALRRYINKLTRPRY [4058070] |  | 0.03 nM
APLEPKYPGDNATPEELAKYAAELRRYINKLTRPRY [4058688] | 0.089 nM | 
PAPLEAVYPGDNATPEQMARYYSELRRYINKLTRPRY (ends and bridges not checked) [compound of SEQ ID NO:702 (code 4058286)] |  | 0.093 nM
AAPLEPVYPGDNATPEQLARYYSELRRYINKLTRPRY [4058298] |  | 0.072 nM
AAPLEPVYPGDNATPEQMARYYSELRRYINKLTRPRY [4058280] |  | 0.042 nM
HAPLEPKYPGDDATPEELAHYYSELRRYINKLTRPRY [4058710] | 0.129 nM | 
PAPLEPKYPGDDATPEELAHYYSELRRYINKLTRPRY [4058709] | 0.083 nM | 
PLEPVYPGDNATPEQLARYYSELRRYINKLTRPRY [4058296] |  | 0.053 nM
APLEPEYPGDDATPQEMARYAAELRRYINKLTRPRY [4058680] | 0.069 nM | 
PLEPKYPGDNATPEELAKYAAELRRYINKLTRPRY [4058687] | 0.096 nM | 
PLEPKYPGDDATPEELAHYYSELRRYINKLTRPRY [4058706] | 0.084 nM | 
PLEPKYPGDNATPEQMAKYAAELRRYINKLTRPRY [4058158] |  | 0.047 nM
4058071 (protein) CAPLEPTYPGDNATPEQMARYAAALRRYINKLTRPRYCAPLEPTYPGDNATPEQMARYAAALRRYINKLTRPRY |  | 0.143 nM

The next lines start with the values.

IC50 (human Y4 receptor [1]) | IC50 (human Y4 receptor [2]) | Binder
0.095 nM |  | AAPLEPHYPGDNATPEEMAKYAAELRRYINKLTRPRY [4058697]
 | 0.072 nM | PAPLEPEYPGDNATPEELAKYAAELRRYINKLTRPRY [4058078]
0.071 nM |  | AKPLEPKYPGDNATPEELAKYAAELRRYINKLTRPRY [4058690]
 | 0.099 nM | PAPLEPKYPGDNATPEQMAKYAAELRRYINLLTRPRY [4058169]
0.094 nM |  | AAPLEPHYPGDNATPEELAKYAAELRRYINKLTRPRY [4058704]
 | 0.048 nM | AAPLEPEYPGDNATPEEMAKYAAELRRYINKLTRPRY [4058076]
 | 0.051 nM | AAPLEPSYPGDNATPEQMAKYAAELRRYINKLTRPRY [4058148]
0.078 nM |  | PLEPEYPGDDATPQEMARYAAELRRYINKLTRPRY [4058679]
 | 0.051 nM | PLEPEYPGDNATPEEMAKYAAELRRYINKLTRPRY [4058072]
0.087 nM |  | YAPLEPEYPGDDATPQEMARYAAELRRYINKLTRPRY [4058684]
0.09 nM |  | AKPLEPEYPGDDATPQEMARYAAELRRYINKLTRPRY [4058685]
 | 0.07 nM | HAPLEPTYPGDNATPEQMARYAAALRRYINKLTRPRY [4058069]
 | 0.057 nM | APLEPSYPGDNATPEQMAKYAAELRRYINKLTRPRY [4058147]
 | 0.11 nM | AAPLEPSYPGDDATPQQMAHYYSELRRYINLLTRPRY [4058082]
0.086 nM |  | PLEPHYPGDNATPEELAKYAAELRRYINKLTRPRY [4058702]
 | 0.105 nM | PLEPEYPGDNATPEQMAKYAAELRRYINLLTRPRY [4058154]
 | 0.063 nM | PLEPKYPGDNATPEQLAKYAAELRRYINKLTRPRY [4058165]
 | 0.046 nM | PLEPSYPGDNATPEQMAKYAAELRRYINKLTRPRY [4058146]
